The target of experiment [1] is T1, receptor binding domain (RBD) of the S1-subunit of SARS-CoV-2 glycoprotein S (SARS-CoV-2, UniProt P0DTC2 319-541). As to the kind of experiment: ACE2:RBD competition assay, 5 µg/ml IgG.
In experiment [2] the target is T2, receptor binding domain (RBD) of the S1-subunit of SARS-CoV-2 glycoprotein S (SARS-CoV-2, UniProt P0DTC2 319-541). As to the kind of experiment: ACE2:RBD competition, antibody at 5 µg/ml.
Experiment [3] concerns the target T2, receptor binding domain (RBD) of the …. As to the kind of experiment: ACE2:RBD competition, antibody at 0.5 µg/ml.
In experiment [4] the target is SARS-CoV-2 glycoprotein S (SARS-CoV-2, UniProt P0DTC2 14-1273). As to the kind of experiment: cell-based or functional assay.
Experiment [5] concerns the target T1, receptor binding domain (RBD) of the …. Put plainly: RBD-binding quality as compared to STE90-C11, wt.

19 molecules from US20240059758A1 (CORAT THERAPEUTICS, published 2024) can be followed below.

Bounds are passed on as bounds.

B1: YU505-A05 (antibody, V domains shown)
VH: QVQLVQSGAEVKKPGSSVKVSCKASGGTFSSYAISWVRQAPGQGLEWMGGIIPIFGTANYAQKFQGRVTITADESTSTAYMELSSLRSEDTAVYYCARSDSGYSGYGYFDYWGQGTLVTVSS
VL: QSALTQPASVSGSPGQSISISCTGTSSDVGRYNYVSWYQQHPGKAPKLMIYDVTNRPSGVSSRFSGSKSGNAASLTISGLQAEDEAEYYCTSYTSSNTLVIFGGGTKVTVL
Turning to B1, the “ACE2:RBD inhibition with 5 µg/ml IgG [%]” value in experiment [1] worked out at 52.7%.

B2: YU505-A01 (antibody, V domains shown)
VH: QVQLVQSGAEVKKPGASVKVSCKASGYTFTSYYMHWVRQAPGQGLEWMGIINPSGGSTSYAQKFQGRVTMTRDTSTSTVYMELSSLRSEDTAVYYCARDRHYYDSSGSSQATFLFDYWGQGTLVTVSS
VL: QSVLTQPPSVSGAPGQRVTISCTGSSSNIGAGYDVHWYQQLPGTAPKLLIYGNSNRPSGVPDRFSGSKSGTSASLAITGLQAEDEADYYCQSYDSSLNVFGTGTKLTVL
In the case of B2, the “ACE2 bound to RBD at 5 µg/ml antibody” value in experiment [2] is below 30%. Besides, the “ACE2 bound to RBD at 0.5 µg/ml antibody” value in experiment [3] was below 60%. Moreover, the “Confluence Score in VERO E6 cell assay” value in experiment [4] is above 99%.

B3: YU505-A01 (antibody, V domains shown)
VH: QVQLVQSGAEVKKPGASVKVSCKASGYTFTSYYMHWVRQAPGQGLEWMGIINPSGGSTSYAQKFQGRVTMTRDTSTSTVYMELSSLRSEDTAVYYCARDRHYYDSSGSSQATFLFDYWGQGTLVTVSS
VL: QSVLTQPPSVSGAPGQRVTISCTGSSSNIGAGYDVHWYQQLPGTAPKLLIYGNSNRPSGVPDRFSGSKSGTSASLAITGLQAEDEADYYCQSYDSSLNVFGTGTKLTVL
For the molecule B3, the “ACE2:RBD inhibition with 5 µg/ml IgG [%]” value in experiment [1] was 102%.

B4: YU519-A09 (antibody, V domains shown)
VH: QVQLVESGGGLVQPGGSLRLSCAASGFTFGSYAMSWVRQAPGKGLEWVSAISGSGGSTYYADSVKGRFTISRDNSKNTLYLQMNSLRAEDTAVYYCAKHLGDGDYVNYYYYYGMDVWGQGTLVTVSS
VL: SYVLTQPPSVSVAPRQTARITCGGNNIGSKNVHWYQQKPGQAPVLVVYDDNVRPSGIPERFSGSNSGNTATLTISRVEAGDEADYYCQVWLNSSDDVLFGGGTKVTVL
In the case of B4, the “ACE2:RBD inhibition with 5 µg/ml IgG [%]” value in experiment [1] turned out to be 35.6%.

B5: YU505-F03 (antibody, V domains shown)
VH: EVQLLESGAEVKKPGASVKVSCKASGYTFTGYYMHWVRQAPGQGLEWMGQINPNSGGTNYAQKFQGRVTMTRDTSISTAYMELSRLRSDDTAVYYCARGEGFDYWGQGTLVTVSS
VL: SYVLTQPPSASGTPGQRVTISCSGSSSNIGSNYVYWYQQLPGTAPKLLIYRNNQRPSGVPDRFSGSKSGTSASLAISGLRSEGEADYYCAAWDDSLSGVVFGGGTKVTVL
For the molecule B5, in experiment [1], the “ACE2:RBD inhibition with 5 µg/ml IgG [%]” value amounted to 42.2%.

B6: hybrid antibody: VL YU536-D04 (SEQ ID No. 362) with VH STE90-C11 (SEQ ID No. 1305) (antibody, V domains shown)
VH: QVQLVESGGGLVQPGGSLRLSCAASGLTVSSNYMSWVRQAPGKGLEWVSVIYSGGSTYYADSVKGRFTISRDDSKNTLYLQMNSLRAEDTAVYYCARDVADAFDIWGQGTMVTVSS
VL: DIQLTQSPSSLSASVGDRVTITCRASQGISSYLAWYQQKPGKAPKLLIYAASTLQSGVPSRFSGSGSGTDFTLTISSLQPEDFATYYCQQLNSYPITFGQGTKLEIK
In the case of B6, the binding result in experiment [5] is reported as “binds”.

B7: hybrid antibody: VL YU537-H11 (SEQ ID No. 402) with VH STE90-C11 (SEQ ID No. 1305) (antibody, V domains shown)
VH: QVQLVESGGGLVQPGGSLRLSCAASGLTVSSNYMSWVRQAPGKGLEWVSVIYSGGSTYYADSVKGRFTISRDDSKNTLYLQMNSLRAEDTAVYYCARDVADAFDIWGQGTMVTVSS
VL: QSVLTQPPSVSAAPGQKVTISCSGSSSNIGNNYVSWYQQLPGTAPKLLIYDTNKRPSGIPDRFSGSKSGTSATLGITGLQTGDEADYYCATWDSSLSVGVFGGGTKLTVL
For the molecule B7, the binding result in experiment [5] is “binds”.

B8: hybrid antibody: VL YU536-D04 (SEQ ID No. 362) with VH YU537-H11 (SEQ ID No. 404) (antibody, V domains shown)
VH: EVQLLESGGGLIQPGGSLRLSCAASGLTVSSNYMSWVRQAPGKGLEWVSVIYSGGSTYYADSVKGRFTISRDNSKNALYLQMNSLRAEDTAVYYCARGESGSPYGMDVWGQGTLVTVSS
VL: DIQLTQSPSSLSASVGDRVTITCRASQGISSYLAWYQQKPGKAPKLLIYAASTLQSGVPSRFSGSGSGTDFTLTISSLQPEDFATYYCQQLNSYPITFGQGTKLEIK
Consider B8, for which the binding result in experiment [5] is on record as “binds”.

B9: YU505-B06 (antibody, V domains shown)
VH: not shown
VL: SYVLTQPPSVSVAPGKTARITCGGNNIGSKSVHWYQQKPGQAPVLVIYYDSDRPSGIPERFSGSNSGNTATLTISRVEAGDEADYYCQVWDSSSDHVVFGGGTKLTVL
B9: in experiment [1], the “ACE2:RBD inhibition with 5 µg/ml IgG [%]” value came out at 58.5%.

B10: YU505-D02 (antibody, V domains shown)
VH: QVQLVQSGAEVKKPGSSVKVSCKASGGTFSSYAISWVRQAPGQGLEWMGGIIPIFGTANYAQKFQGRVTITADKSTSTAYMELSSLRSEDTAVYYCARETSSGWSFLDYWGQGTLVTVSS
VL: SYVLTQPPSVSVAPGKTARITCGGNNIGSKSVHWYQQKPGQAPVLVIYYDSDRPSGIPERFSGSNSGNTATLTISRVEAGDEADYYCQVWDSSSDHVVFGGGTKVTVL
In the case of B10, the “ACE2:RBD inhibition with 5 µg/ml IgG [%]” value in experiment [1] was determined as 49.4%.

B11: YU505-F05 (antibody, V domains shown)
VH: EVQLLESGGGVVQPGRSLRLSCAASGFTFSSYGMHWVRQAPGKGLEWVAVMSYDGSKKYYADSVKGRFTISRDNSKNTLYLQMNSLRAEDTAVYYCVTQGMDVWGQGTLVTVSS
VL: QSVLTQPPSVSVAPGKTARITCGGNNIGSKSVHWYQQKPGQAPVLVIYYISDRPSGIPERFSGSNSGNTATLTISRVEAGDEAAYYCHVWDSSSDHVVFGGGTKLTVL
Regarding B11, the “ACE2:RBD inhibition with 5 µg/ml IgG [%]” value in experiment [1] was found to be 26.7%.

B12: hybrid antibody: VL STE90-C11 (SEQ ID No. 1309) with VH YU536-D04 (SEQ ID No. 364) (antibody, V domains shown)
VH: QVQLVQSGGGLVQPGGSLRLSCAASGLTVSSNYMSWVRQAPGKGLEWVSVIYSGGSTYYADSVKGRFIISRDNSKNTLYLQMNSLRAEDTAVYYCARDLVVMGLDVWGKGTLVTVSS
VL: DIVMTQSPSFLSASVGDRVTITCRASQGISSYLAWYQQKPGKAPKLLIYAASTLQSGVPSRFSGSGSGTEFTLTISSLQPEDFATYYCQQLNSYPPFTFGPGTKVDIK
Turning to B12, the binding result in experiment [5] is given as “binds”.

B13: hybrid antibody: VL STE90-C11 (SEQ ID No. 1309) with VH YU537-H11 (SEQ ID No. 404) (antibody, V domains shown)
VH: EVQLLESGGGLIQPGGSLRLSCAASGLTVSSNYMSWVRQAPGKGLEWVSVIYSGGSTYYADSVKGRFTISRDNSKNALYLQMNSLRAEDTAVYYCARGESGSPYGMDVWGQGTLVTVSS
VL: DIVMTQSPSFLSASVGDRVTITCRASQGISSYLAWYQQKPGKAPKLLIYAASTLQSGVPSRFSGSGSGTEFTLTISSLQPEDFATYYCQQLNSYPPFTFGPGTKVDIK
Consider B13, for which the binding result in experiment [5] is recorded as “binds”.

B14: hybrid antibody: VL YU537-H11 (SEQ ID No. 402) with VH YU536-D04 (SEQ ID No. 364) (antibody, V domains shown)
VH: QVQLVQSGGGLVQPGGSLRLSCAASGLTVSSNYMSWVRQAPGKGLEWVSVIYSGGSTYYADSVKGRFIISRDNSKNTLYLQMNSLRAEDTAVYYCARDLVVMGLDVWGKGTLVTVSS
VL: QSVLTQPPSVSAAPGQKVTISCSGSSSNIGNNYVSWYQQLPGTAPKLLIYDTNKRPSGIPDRFSGSKSGTSATLGITGLQTGDEADYYCATWDSSLSVGVFGGGTKLTVL
For the molecule B14, the binding result in experiment [5] was “binds”.

B15: YU505-A02 (antibody, V domains shown)
VH: QVQLVESGAEVKKPGSSVKVSCKASGGTFSSYAISWVRQAPGQGLEWMGGIIPIFGTANYAQKFQGRVTITADESTSTAYMELSSLRSEDTAVYYCARQIWAYDSSGYPVPAEYFQHWGQGTLVTVSS
VL: QSVLTQPPSVSGAPGQRVTISCTGSSSNIGAGYDVHWYQQLPGTAPKLLIYGNSNRPSGVPDRFSGSKSGTSASLAITGLQAEDEADYYCQSYDSSLSGVVFGGGTKLTVL
With B15, the “ACE2 bound to RBD at 5 µg/ml antibody” value in experiment [2] was below 30%. In experiment [3], the “ACE2 bound to RBD at 0.5 µg/ml antibody” value was below 60%. Moreover, in experiment [4], the “Confluence Score in VERO E6 cell assay” value was above 99%.

B16: YU505-E02 (antibody, V domains shown)
VH: QVQLVQSGAEVKKPGSSVKVSCKASGGTFSSYTISWVRQAPGQGLEWMGRIIPILGIANYAQKFQGRVTITADKSTSTAYMELSSLRSEDTAVYYCARDMVSVGAAGPYYFDYWGQGTLVTVSS
VL: QSVLTQPPSVSEAPRQRVTISCTGSSSNIGAGYDVHWYQQLPGTAPKLLIYGNSNRPSGVPDRFSGSKSVTSASLAITGLQAEDEADYYCQSYDSSLSGSVFGGGTKLTVL
As for B16, in experiment [1], the “ACE2:RBD inhibition with 5 µg/ml IgG [%]” value turned out to be 58.8%.

B17: YU505-A02 (antibody, V domains shown)
VH: QVQLVESGAEVKKPGSSVKVSCKASGGTFSSYAISWVRQAPGQGLEWMGGIIPIFGTANYAQKFQGRVTITADESTSTAYMELSSLRSEDTAVYYCARQIWAYDSSGYPVPAEYFQHWGQGTLVTVSS
VL: QSVLTQPPSVSGAPGQRVTISCTGSSSNIGAGYDVHWYQQLPGTAPKLLIYGNSNRPSGVPDRFSGSKSGTSASLAITGLQAEDEADYYCQSYDSSLSGVVFGGGTKLTVL
On to B17, for which the “ACE2:RBD inhibition with 5 µg/ml IgG [%]” value in experiment [1] turned out to be 43.8%.

B18: YU505-E01 (antibody, V domains shown)
VH: QVQLVQSGAEVKKPGSSVKVSCKASGGTFSSYSIVWVRQAPGQGLEWMGGIIPIFGTTNYAQKFQGRVTITADESTSTAFMELSNLKSEDTAVYFCARSLGATRDYWGQGTLVTVSS
VL: SYVLTQPPSVSEAPRQRVTISCSGSSSNIGNNAVNWYQQLPGKAPKLLIYYDDLLPSGVSDRFSGSKSGTSASLAISGLQSEDEADYYCAAWDDSLNGPVFGGGTKVTVL
Consider B18, for which the “ACE2:RBD inhibition with 5 µg/ml IgG [%]” value in experiment [1] was determined as 24%.

B19: YU505-E04 (antibody, V domains shown)
VH: QVQLVQSGAEVKKPGSSVKVSCKASGGTFSSYAISWVRQAPGQGLEWMGGIIPIFGTANYAQKFQGRVTITADESTSTAYMELSSLRSEDTAVYYCARGRGYSYGHDYWGQGTLVTVSS
VL: SYELTQPPSVSEAPRQRVTISCSGSSSNIGNNAVNWYQQFPGKAPKLLIYYDDLLPSGVSDRFSGSKSGTSASLAISGLQSEDEADYYCAAWDDSLNGWVFGGGTKLTVL
B19: in experiment [1], the “ACE2:RBD inhibition with 5 µg/ml IgG [%]” value was determined as 28%.
